{"source": "patent US20160033500A1", "about": "(SYSMEX, published 2016)", "molecules": {"B1": {"name": "Kininogen (peptide)", "peptide": "HNLGHGHKHERDQGHGHQR", "notes": "Named as the protein, but a 19-residue peptide was used"}, "B2": {"name": "fibrinogen α (peptide)", "peptide": "DEAGSEADHEGTHSTKRGHAKSRPV", "notes": "Named as the protein, but a 25-residue peptide was used"}, "B3": {"name": "ACTH partial peptide at the 1-24 positions (peptide)", "peptide": "SYSMEHFRWGKPVGKKRRPVKVYP", "notes": "Synthetic peptide from Biologica Co, Ltd; also called ACTH24"}, "B4": {"name": "inter-α-trypsin inhibitor heavy chain 4 (peptide)", "peptide": "GESRNRNVHSGSTFFKYYLQGAKIPKPEASFS", "notes": "Named as the protein, but a 32-residue peptide was used; also called ITIH4"}, "B5": {"name": "ACTH partial peptide at the 1-41 positions (peptide)", "peptide": "GPSYSMEHFRWGKPVGKKRRPVKVYPNGAEDESAEAFPLEF", "notes": "Synthetic peptide from Biologica Co, Ltd; also called ACTH41"}, "B6": {"name": "Lysozyme (enzyme)", "chain": "KVYGRCELAAAMKRLGLDNFRGYSLGNWVCAAKFESNFNTHATNRNTDGSTDYGILQINSRWWCNDGRTPGSRNLCNIPCSALLSSDTIASVNCAKKIVSDGNGMNAWVAWRKRCKGTDVNAWTRGCRL"}}, "key": {"human serum albumin [1]": {"target": "T1, human serum albumin (human, UniProt P02768 25-609)", "T1 construct": "Adsorbed on an unmodified silicon nitride sensor chip (HSA sensor chip) from a 0.2 µM solution; also called HSA", "experiment": "coefficient b of the two-exponential dissociation fit (Equation I), HSA sensor chip, 1000 µM peptide"}, "human serum albumin [2]": {"target": "T1, human serum albumin", "experiment": "reflection interference spectroscopy, HSA sensor chip, 1000 µM peptide"}, "human serum albumin [3]": {"target": "T1, human serum albumin", "experiment": "reflection interference spectroscopy, HSA sensor chip, 2 µM peptide", "protocol": "Then, a running buffer (0.1 M sodium phosphate buffer (pH 6.9)) was injected into a flow path formed between the substrate and the flow cell at a flow rate of 100 μL/min for 30 minutes or more so as to equilibrate the surface of the substrate. […] In injecting the running buffer or the sample, a liquid feeding pump for high-performance liquid chromatograph [product name: Prominence UFLC, manufactured by Shimadzu Corporation] and an autosampler [product name: Chromaster, manufactured by Hitachi, Ltd.] were used. As a result, a solid phase carrier having HSA immobilized on the surface thereon (hereinafter also referred to as “HSA sensor chip”) was obtained. In injecting the HSA solution into the flow path, the wavelength variation Δλ of bottom wavelength of the spectral reflectivity curve of the reflected light when the flow path was irradiated with white light was measured with time, whereby a sensorgram showing the time-dependent change of the wavelength variation Δλ was obtained."}, "human serum albumin [4]": {"target": "T1, human serum albumin", "experiment": "reflection interference spectroscopy, HSA sensor chip, 100 µM peptide", "protocol": "(§1) The wavelength variation Δλ of the bottom wavelength of the spectral reflectivity curve of the reflected light (the layer thickness change amount Δλ) when the flow path was irradiated with white light was measured with time, whereby a sensorgram was obtained."}, "human serum albumin [5]": {"target": "T1, human serum albumin", "experiment": "coefficient b of the two-exponential dissociation fit (Equation I), HSA sensor chip, 10 µM peptide", "protocol": "as §1"}, "human serum albumin [6]": {"target": "T1, human serum albumin", "experiment": "reflection interference spectroscopy, HSA sensor chip, 10 µM peptide", "protocol": "as §1"}, "human serum albumin [7]": {"target": "T1, human serum albumin", "experiment": "reflection interference spectroscopy, HSA sensor chip, 10 µM lysozyme"}, "human serum albumin [8]": {"target": "T1, human serum albumin", "experiment": "reflection interference spectroscopy, HSA sensor chip, 1 µM peptide"}, "human serum albumin [9]": {"target": "T1, human serum albumin", "experiment": "reflection interference spectroscopy, HSA sensor chip, 50 µM peptide"}}}
{"molecule": "(His) 3 (peptide)", "values": [{"measurement": "b value", "setting": "human serum albumin [1]", "value": 0.344}, {"measurement": "koff", "setting": "human serum albumin [2]", "value": 0.00257, "unit": "s⁻¹"}, {"measurement": "maximum layer thickness change amount Δλ", "setting": "human serum albumin [2]", "value": 0.027, "unit": "nm"}]}
{"molecule": "RRRRRRRRRR (also called (Arg)10)", "note": "[arginine decapeptide]", "values": [{"measurement": "binding result", "setting": "human serum albumin [3]", "value": "binds"}]}
{"molecule": "B1", "values": [{"measurement": "koff", "setting": "human serum albumin [4]", "value": 0.00493, "unit": "s⁻¹"}]}
{"molecule": "B2", "values": [{"measurement": "binding result", "setting": "human serum albumin [3]", "value": "binds"}]}
{"molecule": "HHHHHHHHHH", "note": "[(His) 10]", "values": [{"measurement": "b value", "setting": "human serum albumin [5]", "value": 0.093}, {"measurement": "koff", "setting": "human serum albumin [6]", "value": 0.00073, "unit": "s⁻¹"}, {"measurement": "maximum layer thickness change amount Δλ", "setting": "human serum albumin [6]", "value": 0.086, "unit": "nm"}]}
{"molecule": "B3", "values": [{"measurement": "binding result", "setting": "human serum albumin [3]", "value": "binds"}]}
{"molecule": "B4", "values": [{"measurement": "binding result", "setting": "human serum albumin [3]", "value": "binds"}]}
{"molecule": "YSMEHFRWGKPVGKK", "note": "[ACTH15]", "values": [{"measurement": "b value", "setting": "human serum albumin [5]", "value": 0.029}, {"measurement": "koff", "setting": "human serum albumin [6]", "value": 0.0115, "unit": "s⁻¹"}, {"measurement": "maximum layer thickness change amount Δλ", "setting": "human serum albumin [6]", "value": 0.061, "unit": "nm"}]}
{"molecule": "B5", "values": [{"measurement": "binding result", "setting": "human serum albumin [3]", "value": "binds"}]}
{"molecule": "B6", "values": [{"measurement": "koff", "setting": "human serum albumin [7]", "value": 0.0066, "unit": "s⁻¹"}]}
{"molecule": "GVPGLGVGAGV", "note": "[ELN 11mer]", "values": [{"measurement": "koff", "setting": "human serum albumin [8]", "value": 0.00016, "unit": "s⁻¹"}]}
{"molecule": "AWAVARLSQRFPK", "note": "[IS 13mer]", "values": [{"measurement": "koff", "setting": "human serum albumin [9]", "value": 0.0171, "unit": "s⁻¹"}]}
{"molecule": "KKKKKKKKKK", "note": "[(Lys) 10]", "values": [{"measurement": "koff", "setting": "human serum albumin [4]", "value": 0.0002, "unit": "s⁻¹"}]}
{"molecule": "HHHHHHHHHHHHHHHHHHHH (also called (His)20)", "note": "[histidine eicosa peptide]", "values": [{"measurement": "binding result", "setting": "human serum albumin [3]", "value": "binds"}]}
